# Assay results: article doi:10.1101/2020.09.17.302455
# B1: bone morphogenetic protein 2 (ligand)
# chain: QAKHKQRKRLKSSCKRHPLYVDFSDVGWNDWIVAPPGYHAFYCHGECPFPLADHLNSTNHAIVQTLVNSVNSKIPKACCVPTELSAISMLYLDENEKVVLKNYQDMVVEGCGCR
# Target: human plasma fibronectin (human)
# Assay: ELISA
binder,measurement,value
B1,percent of BMP2 absorbed,70 to 80%
